The data set concerns the molecule itself. Nature of the data set: SEC.

B1: MBP-Ddn fusion protein, full-length wild-type deazaflavin-dependent nitroreductase (Ddn, Rv3547) fro (enzyme)
chain: MPKSPPRFLNSPLSDFFIKWMSRINTWMYRRNDGEGLGGTFQKIPVALLTTTGRKTGQPRVNPLYFLRDGGRVIVAASKGGAEKNPMWYLNLKANPKVQVQIKKEVLDLTARDATDEERAEYWPQLVTMYPSYQDYQSWTDRTIPIVVCEP
notes: also called WT MBP-Ddn
With B1, the binding result was “binds”.

B2: Untagged wild-type Ddn (full length), produced by proteolytic removal of MBP (enzyme)
chain: B1 chain
notes: also called Untagged Ddn; untagged WT Ddn
Take B2: the binding result is reported as “binds”.

Values taken from publication PMC3267046, “Structure of Ddn, the Deazaflavin-Dependent Nitroreductase from Mycobacterium tuberculosis Involved in Bioreductive Activation of PA-824” (Structure(London, England:1993), 2012).
